Target: maltose binding protein (MBP)-tagged ubiquitin
Assay: ELISA

GST-tagged SUVR4 WIYLD domain A32E (domain or fragment)
reduction of binding relative to wild-type S4WIYLD: 37%

GST-tagged SUVR1 WIYLD domain (domain or fragment)
binding in ELISA relative to S4WIYLD (set to 1) (relative to S4WIYLD = 1): 0.65

GST-tagged SUVR2 WIYLD domain (domain or fragment)
binding in ELISA relative to S4WIYLD (set to 1) (relative to S4WIYLD = 1): 1.23
